Test results reported in patent publication US20240101646A1 (published 2024).
Positions count from the first letter of the chain named.

B1: 53182-4 (antibody, V domains shown)
VH: QITLEESGPTLVTPTQTLTLTCSFSGFSLDTIGVAVAWIRQPPGKALEWLGTVFWDYDKRYSPPLSSRLTVIKDTSQQYVVLRLTDVGPGDTATYYCARLLIEHDAFDIWGQGAVVIVSS
VL: DVVVTQSPVSLPATPGEPASISCRASQSLLHRNGKHYLHWYLQRPGQSPQLLIYLGSNRASGVPDRFSGSGSGTVFSLKISRVEAEDVGIYYCMQALHFPYTFGQGTKLDIK
B2: 53181-1 (antibody, V domains shown)
VH: QVQLVQSGAEVKKPGASVKVSCKASGYTFTNYVLTWVRQAPGQGLEWMGWISAYNGSTNYAQNLQGRVTMTTDTSTSTAYMELRSLRSDDTAVYYCARDPASYYDFWSGYVDYYYYGMDVWGQGTTVTVSS
VL: ELVLTQSPGTLSLSPGERATLSCRASQSVSSSYLAWYQQKPGQAPRLLIYSASSRATGIPDRFSGSGSGTDFTLTISRLEPEDFAVYYCQQYGNSRLTFGPGTKVDIK
B3: 53181-2 (antibody, V domains shown)
VH: B2 VH with N31S, V33S, L34I, T35N, N63K, F106L
VL: B2 VL with L2I, S51G, Q90H, Q91H, N94S
B4: 5317-3 (antibody, V domains shown)
VH: EVQLVESGGGLVQPGGSLRLSCSASGFTFSSYPMYWVRQAPGIGLEYVSGITDNGGSTYYGDSVKGRFTISRDNSKNTLNLQMNNLRTEDTAVYYCVKGKIQLWLGADYWGQGTLVTVSS
VL: DIQMTQSPSSLSASVGDRVTITCRANQTISSYLNWYQQKPGKAPKVLIFAASSLEGGVPSRFSGSGSGTDFTLTISSLQPEDFATYSCQQSYNTPWTFGQGTKVEIK
B5: 5317-6 (antibody, V domains shown)
VH: QLQLQESGPGLVKPSETLSLTCTVSGASISSSSYYWGWIRQPPGKGLEWIGTMYYRGSTDYNPSLKSRVTISVDTSKNQFSLRLSSVTAADTAVYYCARRVPGDYYCLDVWGKGTTVTVSS
VL: DIQLTQSPSSLSASVGDRVTVTCRASQSISDYLNWYQQKPGKAPKLLIYAASSLQTGVPPRFSGSGSGTDFTLTISSLQPEDFATYYCQQSFSARVPTFGGGTKVESK
B6: 53182-9 (antibody, V domains shown)
VH: EVQLVESGGGLILPGGSLRLSCAASGVTVSSNYMNWVRQAPGKGLEWVSVIYSGGSTFYADSVKGRFTISRDNSKNTLYLQMNSLRAEDTAVYYCARGGWPSGDTFDIWGQGTMVTVSS
VL: DIQLTQSPSFLSASVGDRVTITCRASQGISSYLAWYQQKPGKAPKLLIYAASTLQSGVPSRFSGSGSGTEFTLTISSLQPEDFATYYCQQLNSYPEITFGPGTKVDIK
B7: 53182-1 (antibody, V domains shown)
VH: B6 VH with L13Q, A23T, V27I, S31T, N35T, V50I, F58Y, E88D, A96T, Q111L
VL: B6 VL with A50G
B8: 53182-8 (antibody, V domains shown)
VH: QLQLQESGPGLVKPSETLSLTCTVSGGSISSSSYYWGWIRQPPGKGLEWIGTIYYSGSTYYNPSLKSRVTISVDTSKTQFSLKLSSVTAADTAVYYCARDRRGGGWTASFDFWGQGTLVTVSS
VL: not shown
B9: 5317-2 (antibody, V domains shown)
VH: QVQLVQSGAEVKKPGSSVKVSCKVSGGTFSSYTIIWVRQAPGQGLEWMGRVIPVVHITHYAQRFRGRVTISADKSTSTAYMELSSLRSEDTAVYYCARGLWFGDSETVWFDPWGQGTLVTVSS
VL: DIQMTQSPSSLSASVGDRVTITCRASQNITYYLNWYQQKPGKAPNLLIYTASSLQSGVPSRFIGSGSGTDFTLTISSLQPEDFATYCCQQSYSTPPTFGQGTKVEIR
B10: 5317-5 (antibody, V domains shown)
VH: QVQLVQSGAEVKKPGSSVKVSCKASGGTFSSYPITWVRQAPGQGFEWMGKIIPILGIADYAQSFQGRVTITADKSTTTAYMELSSLRSEDTAVYYCAREKGYSSSSSATYYLDFWGQGTLVTVSS
VL: QSVLTQPPSVSGAPGQRVTISCTGSNSNIGAGYDVHWYQQLPGTAPRLLIYRNSNRPSGVPDRFSGSKSGTAASLAISGLQAEDEADYYCQSYDSSLTALVFGGGTKLTVL
B11: 53182-6 (antibody, V domains shown)
VH: EVQLVESGGGLVQPGGSLRLSCAASGFTVSDNYMSWVRQAPGKGLQWVSVIYSGGNTYYADFVKGRFNITRDDSKNMLYLQMNSLRREDTAVYYCVRDRRIVGYYFGLDVWGQGTTVTVFS
VL: QSALTQPASVSGSPGQSITISCTGTSSDVRNYNLVSWYQQHPGKAPKLMIFEDSKRPSGVSNRFSGSKSGNTASLTIAGLQPEDEADYYCCSYATTWVFGGGTKVTVL
B12: 53182-3 (antibody, V domains shown)
VH: EVHLVESGGGLVQPGGSLRLSCAASGFTVSSNYMSWVRQAPGKGLEWVSVIYSGGNTYYADSVKGRFTISRDNSKNTLYLQMNSLRAEDTAVYYCARDRRIIGYYFGMDVWGRGTTVTVSS
VL: QSALTQPASVSGSPGQSITISCTGTSSYVGSFDLVSWYQQHPGKAPKLMIYEVSKRPSGVSNRFSGSKSGNTASLTISGLQAEDEADYYCCPYADTWVFGGGTKLTVL
B13: 5317-7 (antibody, V domains shown)
VH: EVQLVGSGGGLVQPGGSLRLSCAASGFTFSTYWMSWVRQAPGKGLEWVADIKQDGSEKYYVDSVKGRFTISRDNAKNSLYLQMNSLRVEDTALYYCARGGLWGTFDYWGQGTLVTVSS
VL: EIVLTQSPGTLSLSPGERASLSCRASQSVSSSYLAWYQQKPGQAPRLLIYGASSRATGIPDRFSGSGSGTDFTLTISRLEPEDFAVYWCQQFAYSLYTFGQGTKLEIK
B14: antibody 5317-4 (antibody, V domains shown)
VH: QVQLRLWGAGLLKPSETLSLTCAVSGGSFIDYYWTWIRQPPGKGLEWIGEINHFGGSGYNPSLKSRVSISVDTSKNQFSLRLNSVTAADTAIYYCARKPLLHSSVNPGAFDIWGQGTMLTVSS
VL: EIVLTQSPGTLSLSPGERAALSCRASQSVAGTYLAWYQQKPGQAPRLLIYGASSRATGIPDRFSGSGSGTDFTLTISRLEPEDFAVYYCQQYATSPRTFGQGTQLEIR
B15: 53182-11 (antibody, V domains shown)
VH: EVQLVEFGGGLVQPGRSLRLSCATSGFTFEDFDMHWVRQAPGKGLEWVSGSTWNSGIIGYADSVKGRFTTSRDNAKNSLYMQMNNLREEDTALYYCAKDIGRYDHYNIFGRVGGAFDIWGQGTMVTVSS
VL: DIQMTQSPSSLSASVGDRVTISCQTSQDISVSLNWYQQKPGKPPKVLIYDASNLEAGAPSRFSGSGSGTDFTFTISSLQPEDIATYYCQHYDNLPRFGPGTKVDIK
B16: 5317-1 (antibody, V domains shown)
VH: QMQLVQSGPEVKKPGTSVKVSCKASGFTFSTSVVQWVRQPRGQRLEWIGGIVVGRGNTKYAQNFQERVTITRDMSTSTAYMELSNLRSEDTAVYYCAADPFADYWGQGTLVTVSS
VL: not shown

Molecular target: SARS-CoV-2 NTD (SARS-CoV-2, UniProt P0DTC2 14-305)

| Binder | Kd [nM] |
| --- | --- |
| B1 | 2.28 |
| B2 | 1.17 |
| B3 | 31.3 |

Molecular target: SARS-CoV-2 RBD (SARS-CoV-2, UniProt P0DTC2 319-541)

| Binder | Kd [nM] |
| --- | --- |
| B4 | 1.92 |
| B5 | 1.66 |
| B6 | 0.0475 |
| B7 | 2.81 |
| B8 | 16.5 |
| B9 | 1.95 |
| B10 | 0.0826 |
| B11 | 0.935 |
| B12 | 8.32 |
| B13 | 10.5 |
| B14 | 1.78 |
| B15 | 3.18 |
| B16 | 0.0434 |
